The data set can be described thus: protein stability index of a GFP-peptide fusion (GPS, HEK-293T) (PSI 1-6); higher = more stable. The note with it: c terminus: a fixed tail appended.

± gives the standard deviation.
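Also: 24-mer peptide tiles fused after GFP, lentivirally expressed, FACS-sorted into six equal bins by GFP/DsRed ratio, decoded by Illumina sequencing, PSI is the read-weighted mean bin number.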

CINIPGSYVCRCKQGYILNSDQTT [MATN2]: the protein stability index is 2.43 ± 0.17 (treatment: DMSO) and 2.4 ± 0.35 (treatment: MLN4924 1 uM, 8 h).
CKLQEQLEATVKKLEESKQLLKNN [SASS6]: the protein stability index is, setting by setting: (treatment: DMSO) 3.7 ± 0.15; (treatment: MLN4924 1 uM, 8 h) 3.47 ± 0.26.
For the sequence CLPAGPRVYFLKGGYETFYSEYPE [DUSP5], the protein stability index worked out at 2.29 ± 0.22 (treatment: DMSO) and 2.28 ± 0.31 (treatment: MLN4924 1 uM, 8 h).
With CMCTVGERLYVIGGNHFRGTSDYD [KLHL13], the protein stability index turned out to be 1.95 ± 0.17 (treatment: DMSO) and 2.38 ± 0.23 (treatment: MLN4924 1 uM, 8 h).
In the case of CMFQEHKNHSTVTVEEAKAEKETE [TRIM29], the protein stability index came out at 5.52 ± 0.22 (treatment: DMSO) and 5.36 ± 0.24 (treatment: MLN4924 1 uM, 8 h).
Turning to CMSIVTSMTAGVSEREANDALNAY [INTS3], the protein stability index reads like this: (treatment: DMSO) 3.41 ± 0.3; (treatment: MLN4924 1 uM, 8 h) 3.49 ± 0.21.
With CPLTPGPGKALGPAATMAVELHYE [C2CD2L], the protein stability index runs as follows: (treatment: DMSO) 3.67 ± 0.14; (treatment: MLN4924 1 uM, 8 h) 3.76 ± 0.28.
Take CPVWDIFDSDWYTSRNLIGGADII [RHOBTB3]: the protein stability index by setting is: (treatment: DMSO) 3.26 ± 0.5; (treatment: MLN4924 1 uM, 8 h) 3.55 ± 0.26.
Regarding CRKWNQMMYSAELWRYRTITFSGR [FBXO39], the protein stability index by setting is: (treatment: DMSO) 2.41 ± 0.28; (treatment: MLN4924 1 uM, 8 h) 2.15 ± 0.37.
Turning to CRLGYGCGYEGCRYGCGHRGCGDG [KRTAP19-2], the protein stability index is 3.01 ± 0.46 (treatment: DMSO) and 3.11 ± 0.41 (treatment: MLN4924 1 uM, 8 h).
Taken in the same sequence, the figures for CRVPNSGKDEIEAAVKAAREAFPS [ALDH8A1] were 4.65 ± 0.27 and 4.54 ± 0.36.
For CSELNKLCQHFEAVHSGTPVTNNL [SPACA9], the protein stability index was 2.95 ± 0.47 (treatment: DMSO) and 2.97 ± 0.24 (treatment: MLN4924 1 uM, 8 h).
With CSLYENDCIFDKFECAWNGSDSVI [PPP2R2C], the protein stability index reads like this: (treatment: DMSO) 2.21 ± 0.17; (treatment: MLN4924 1 uM, 8 h) 2.17 ± 0.15.
For CSNSQEHGAHKHHPIEEAAEEHRE [TRIM43], in that order: 5.51 ± 0.34 and 5.37 ± 0.27.
CTGTEAHISSCKLGPQVSLDPMKN [LOXL2] gave a protein stability index (treatment: DMSO) of 3.5 ± 0.29 and a protein stability index (treatment: MLN4924 1 uM, 8 h) of 3.81 ± 0.11.
Turning to CVPVFANMSREPFSTRALVLSILH [SOAT2], the protein stability index runs as follows: (treatment: DMSO) 2.22 ± 0.21; (treatment: MLN4924 1 uM, 8 h) 2 ± 0.22.
Regarding CYDPKGDQWNILQTPILEGRSGPG [KLHL14], the protein stability index (treatment: DMSO) worked out at 2.53 ± 0.31 and the protein stability index (treatment: MLN4924 1 uM, 8 h) was found to be 2.77 ± 0.43.
As to DAFPVHRVMMASASDYFKAMFTGG [KLHL13], the protein stability index by setting is: (treatment: DMSO) 2.21 ± 0.38; (treatment: MLN4924 1 uM, 8 h) 2.26 ± 0.23.
Taken in the same sequence, the figures for DARIGEAEAKRDAGIREAKAKQEK [FLOT1] were 5.5 ± 0.19 and 5.37 ± 0.19.
For DCARRILAREGVAAFYKGYVPNML [SLC25A25], in that order: 2.12 ± 0.11 and 2.11 ± 0.29.
DCMSRELVSLTSRNPDQRKESLCI [FBXO34]: the protein stability index is 3.93 ± 0.57 (treatment: DMSO) and 4.11 ± 0.32 (treatment: MLN4924 1 uM, 8 h).
Take DDLETMPDDLLTTLDDTCDLFAPL [ATF4]: the protein stability index is, setting by setting: (treatment: DMSO) 5.01 ± 0.088; (treatment: MLN4924 1 uM, 8 h) 5.08 ± 0.16.
Take DEEKQEYLNEYEAEKIEYNESMKA [SMARCE1]: the protein stability index by setting is: (treatment: DMSO) 5.5 ± 0.17; (treatment: MLN4924 1 uM, 8 h) 5.05 ± 0.36.
Taken in the same sequence, the figures for DEKEQLIIPQVPLFNILAKFNGIT [USP39] were 2.54 ± 0.3 and 2.57 ± 0.31.
For DFDDEKILIQHQKAKHFKCHICHK [ZNF207], the protein stability index (treatment: DMSO) was found to be 2.85 ± 0.31 and the protein stability index (treatment: MLN4924 1 uM, 8 h) was found to be 3.31 ± 0.19.
On to DGAAYIGNFDWVGNDFTQNAGTGL [PLD5], for which the protein stability index amounted to 3.3 ± 0.49 (treatment: DMSO) and 3.44 ± 0.14 (treatment: MLN4924 1 uM, 8 h).
Taken in the same sequence, the figures for DGMSGLAGVGLSGGAAGAGWCIFV [ELAVL3] were 2.83 ± 1.1 and 2.69 ± 0.98.
Taken in the same sequence, the figures for DGTSPLNTVERYNPQENRWHTIAP [KLHL20] were 4.12 ± 0.26 and 4.26 ± 0.35.
In the case of DGVKESTESSNTTIEDEDVKARKQ [CAMK2D], the protein stability index amounted to 5.59 ± 0.15 (treatment: DMSO) and 5.74 ± 0.09 (treatment: MLN4924 1 uM, 8 h).
Taken in the same sequence, the figures for DHFQKFLPTVGGQLGTAGQGFSYS [MYOZ1] were 2.81 ± 0.13 and 2.79 ± 0.27.
For the sequence DHMRKKQHRKINPKNREYDRFYVI [ZNF277], the protein stability index is, setting by setting: (treatment: DMSO) 2.21 ± 0.29; (treatment: MLN4924 1 uM, 8 h) 2.03 ± 0.28.
The sequence DKAMKKDGLVGMAIVGGMALGVAG [FIS1] displayed a protein stability index (treatment: DMSO) of 2.89 ± 0.16 and a protein stability index (treatment: MLN4924 1 uM, 8 h) of 2.67 ± 0.12.
On to DKEGPSPKVEYVWRNIILMSLLHL [SCD], for which the protein stability index reads like this: (treatment: DMSO) 3.11 ± 0.69; (treatment: MLN4924 1 uM, 8 h) 3.12 ± 0.4.
For the sequence DKEVRAASTEADKRLSRFDIEMSM [NLN], the protein stability index reads like this: (treatment: DMSO) 4.39 ± 0.32; (treatment: MLN4924 1 uM, 8 h) 4.74 ± 0.32.
DKQRKANESKGTRESWDSAKKLPP [ELOA2]: the protein stability index came to 5.11 ± 0.19 (treatment: DMSO) and 5.06 ± 0.19 (treatment: MLN4924 1 uM, 8 h).
Turning to DKTPVLLTDYPVDLDEIAYFTWAS [MYORG], the protein stability index worked out at 2.64 ± 0.36 (treatment: DMSO) and 2.86 ± 0.4 (treatment: MLN4924 1 uM, 8 h).
As to DLDAWSILIREAQNQPIDKARKTY [CSTF3], the protein stability index is 2.8 ± 0.34 (treatment: DMSO) and 3.04 ± 0.66 (treatment: MLN4924 1 uM, 8 h).
Taken in the same sequence, the figures for DLSRLVNCLTGEGEDTRLSASEMK [CIB1] were 3.5 ± 0.38 and 3.86 ± 0.28.
For the sequence DNARLAVDDFRLKYENELALRQSV [KRT13], the protein stability index is, setting by setting: (treatment: DMSO) 3.92 ± 0.14; (treatment: MLN4924 1 uM, 8 h) 3.86 ± 0.18.
As to DQEEIKTLERYMCSRFFIDFPDIL [TENT5C], the protein stability index was found to be 2.45 ± 0.16 (treatment: DMSO) and 2.56 ± 0.33 (treatment: MLN4924 1 uM, 8 h).
Take DQFLEDVRLQERTSGGLLSEAPNE [NOP53]: the protein stability index worked out at 5.23 ± 0.13 (treatment: DMSO) and 5.38 ± 0.31 (treatment: MLN4924 1 uM, 8 h).
Consider DQYSYSSLVMGSQTESALSKKLRA [LCOR], for which the protein stability index was determined as 3.63 ± 0.12 (treatment: DMSO) and 3.54 ± 0.27 (treatment: MLN4924 1 uM, 8 h).
Consider DRDKRDFVSAGAAAGVAAAFGAPI [CLCN6], for which the protein stability index by setting is: (treatment: DMSO) 4.12 ± 0.096; (treatment: MLN4924 1 uM, 8 h) 4.24 ± 0.19.
On to DRDREEEENRLREELRQEWEAKQE [FAM50A], for which the protein stability index by setting is: (treatment: DMSO) 5.45 ± 0.5; (treatment: MLN4924 1 uM, 8 h) 5.63 ± 0.16.
Regarding DRESLCGASTSCLLPVQVVTEHPL [PCDHGC5], the protein stability index was determined as 4.16 ± 0.18 (treatment: DMSO) and 4.39 ± 0.27 (treatment: MLN4924 1 uM, 8 h).
Turning to DRLLVERIFAQYMVPHNLETTERM [PDS5B], the protein stability index is, setting by setting: (treatment: DMSO) 2.29 ± 0.31; (treatment: MLN4924 1 uM, 8 h) 2.17 ± 0.086.
Consider DRLRRNWPPSFLSEFRALQFSLML [SPNS1], for which the protein stability index (treatment: DMSO) amounted to 2.65 ± 0.6 and the protein stability index (treatment: MLN4924 1 uM, 8 h) came to 2.31 ± 0.51.
In turn, DRPMFMLQCAMEENCLSASAAQTD [LOXL2] came in with a protein stability index (treatment: DMSO) of 2.38 ± 0.52 and a protein stability index (treatment: MLN4924 1 uM, 8 h) of 1.94 ± 0.19.
Taken in the same sequence, the figures for DRQELTYQELLRVCCCELGVNPDQ [ANKRD40] were 3.24 ± 0.24 and 3.34 ± 0.36.
Turning to DSACDESSCIPKAFGNPKFALQGL [IRX6], the protein stability index runs as follows: (treatment: DMSO) 3.62 ± 0.24; (treatment: MLN4924 1 uM, 8 h) 3.6 ± 0.23.
For DSGQYWPSIYHTMASPCSAMAYHH [WDFY1], in that order: 2.34 ± 0.2 and 2.38 ± 0.13.
As for DTLDHIRALDRLQEVPHEGPMCDL [PPP2CA], the protein stability index is, setting by setting: (treatment: DMSO) 4.76 ± 0.24; (treatment: MLN4924 1 uM, 8 h) 4.8 ± 0.066.
